Target: CD8+ T cells among expanded tumor infiltrating lymphocytes (TIL) of a lung adenocarcinoma patient (H)
Experiment: flow cytometry, tetramer staining of expanded TILs of one patient

With “KRAS-G12V/HLA-A*11:01 tetramer (from UniProt P61769 21-119) (peptide-MHC)” as the substance, how does the percent of CD8+ T cells binding the tetramer read?
The percent of CD8+ T cells binding the tetramer was > 66%.
